Data published in patent US20250295803A1, “5T4 ANTIBODY-DRUG CONJUGATES AND USES THEREOF” (EXELIXIS, INC., priority 2022, published 2025).
Positions count from the first letter of the chain named.

B1: mAbA4: 5T4 antibody comprising VH of SEQ ID NO:25 and VL of SEQ ID NO:26 (antibody, V domains shown)
VH: EVQLVESGGGLVQPGGSLRLSCAASGFTFSRYYIHWVRQAPGKGLEWVAFISPGGSYTYYADSVKGRFTISADTSKNTAYLQMNSLRAEDTAVYYCAREYYSMGVLDYWGQGTLVTVSS
VL: DIQMTQSPSSLSASVGDRVTITCRASQSVSSAVAWYQQKPGKAPKLLIYSASSLYSGVPSRFSGSRSGTDFTLTISSLQPEDFATYYCQQAYESPYTFGQGTKVEIK
modifications: Antibody mAbA4 VH Sequence; Antibody mAbA4 VL Sequence
B2: mAbA15: 5T4 antibody comprising VH of SEQ ID NO:44 and VL of SEQ ID NO:45 (antibody, V domains shown)
VH: EVQLVESGGGLVQPGGSLRLSCAASGFTFSSYYIHWVRQAPGKGLEWVAYITSTGSYTEYADSVKGRFTISADTSKNTAYLQMNSLRAEDTAVYYCARYDRSTRYSGLDYWGQGTLVTVSS
VL: B1 VL with E93A, S94T, Y96V
modifications: Antibody mAbA15 VH Sequence; Antibody mAbA15 VL Sequence
B3: mAbA17 (antibody, V domains shown)
VH: EVQLVESGGGLVQPGGSLRLSCAASGFTFSRYWIHWVRQAPGKGLEWVAAIFPYSGSTLYADSVKGRFTISADTSKNTAYLQMNSLRAEDTAVYYCARSPSRSILPSGLDYWGQGTLVTVSS
VL: DIQMTQSPSSLSASVGDRVTITCRASQSVSSAVAWYQQKPGKAPKLLIYSASSLYSGVPSRFSGSRSGTDFTLTISSLQPEDFATYYCQQGDGSPYTFGQGTKVEIKR
notes: also called Antibody mAbA17
B4: mAbA15 (antibody, V domains shown)
VH: B2 VH
VL: B3 VL with G91A, D92Y, G93A, S94T, Y96V
notes: also called Antibody mAbA15
B5: mAbA17: 5T4 antibody comprising VH of SEQ ID NO:62 and VL of SEQ ID NO:63 (antibody, V domains shown)
VH: B3 VH
VL: B1 VL with A91G, Y92D, E93G
modifications: Antibody mAbA17 VH Sequence; Antibody mAbA17 VL Sequence
B6: mAbA4 (antibody, V domains shown)
VH: B1 VH
VL: B3 VL with G91A, D92Y, G93E
notes: also called Antibody mAbA4

Key:
HEK-5T4 cells = assay: Cell binding (flow cytometry), HEK-5T4 cells; type: cell-based
Experimental: Antibodies that were selected for binding to 5T4, for example, such as those described in Example 2, were evaluated for binding to cells that express 5T4. Cells were harvested at 70-90% confluence on the day of the assay. In a v-bottom 96-well plate (Costar 3897), 100,000 cells per well were incubated with 50 μL per well 8- or 12-point antibody dilution series for 30 minutes at +4° C. After incubation, cells were washed once with PBS by centrifugation at 200×g for 5 minutes. Cells were then incubated with 50 μL per well of Alexa Fluor 488 Goat anti-human IgG Fab (Jackson Immuno Research 109-547-003) at 1:100 dilution for 30 minutes at +4° C. Cells were washed twice with PBS by centrifugation at 200×g for 5 minutes and were acquired on iQue Screener Plus (Sartorius). Mean fluorescence intensities of BL1 (Alexa-Fluor-488) channel were plotted against antibody concentrations to generate a dose response curve and EC50 values.

[1] = biological target: T1, HEK293 and CHO cells transfected to express human 5T4 (Homo sapiens, UniProt Q13641); assay: Cell binding to transfected HEK293 and CHO cells, human 5T4; type: cell-based
T1 construct: expressed in transfected cells; host or cells: HEK293 and CHO
T1 sequence (Q13641 32-420): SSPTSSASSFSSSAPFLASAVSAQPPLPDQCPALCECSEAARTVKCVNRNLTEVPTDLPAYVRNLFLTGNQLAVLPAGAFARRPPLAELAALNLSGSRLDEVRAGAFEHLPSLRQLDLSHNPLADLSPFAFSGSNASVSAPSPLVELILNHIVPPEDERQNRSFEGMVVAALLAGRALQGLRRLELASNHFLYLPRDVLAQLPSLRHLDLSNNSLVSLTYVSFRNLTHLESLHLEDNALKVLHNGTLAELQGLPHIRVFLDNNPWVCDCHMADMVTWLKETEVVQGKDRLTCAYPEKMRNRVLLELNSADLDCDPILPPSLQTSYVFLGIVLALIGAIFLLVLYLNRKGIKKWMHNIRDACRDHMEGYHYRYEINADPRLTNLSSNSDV
Experimental: (§1) Unconjugated antibodies were tested for their ability to bind to HEK293 and CHO cells transfected to express human, cyno, rat, or mouse 5T4.

[2] = biological target: T2, HEK293 and CHO cells transfected to express rat 5T4 (Rattus norvegicus, UniProt Q5PQV5); assay: Cell binding to transfected HEK293 and CHO cells, rat 5T4; type: cell-based
T2 construct: expressed in transfected cells; host or cells: HEK293 and CHO
T2 sequence (Q5PQV5 32-426): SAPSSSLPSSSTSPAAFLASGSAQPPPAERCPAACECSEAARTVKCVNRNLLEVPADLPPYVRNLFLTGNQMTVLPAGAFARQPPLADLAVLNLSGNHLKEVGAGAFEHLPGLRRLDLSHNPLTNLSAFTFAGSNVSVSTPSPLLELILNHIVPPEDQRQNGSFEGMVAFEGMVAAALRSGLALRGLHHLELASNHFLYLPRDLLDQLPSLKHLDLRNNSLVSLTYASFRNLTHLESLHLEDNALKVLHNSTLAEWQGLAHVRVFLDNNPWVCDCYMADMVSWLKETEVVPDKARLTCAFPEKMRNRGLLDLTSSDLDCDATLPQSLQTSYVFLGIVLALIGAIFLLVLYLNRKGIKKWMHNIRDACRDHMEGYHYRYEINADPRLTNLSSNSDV
Experimental: as §1

[3] = biological target: T3, HEK293 and CHO cells transfected to express mouse 5T4 (Mus musculus, UniProt Q9Z0L0); assay: Cell binding to transfected HEK293 and CHO cells, mouse 5T4; type: cell-based
T3 construct: expressed in transfected cells; host or cells: HEK293 and CHO
T3 sequence (Q9Z0L0 32-426): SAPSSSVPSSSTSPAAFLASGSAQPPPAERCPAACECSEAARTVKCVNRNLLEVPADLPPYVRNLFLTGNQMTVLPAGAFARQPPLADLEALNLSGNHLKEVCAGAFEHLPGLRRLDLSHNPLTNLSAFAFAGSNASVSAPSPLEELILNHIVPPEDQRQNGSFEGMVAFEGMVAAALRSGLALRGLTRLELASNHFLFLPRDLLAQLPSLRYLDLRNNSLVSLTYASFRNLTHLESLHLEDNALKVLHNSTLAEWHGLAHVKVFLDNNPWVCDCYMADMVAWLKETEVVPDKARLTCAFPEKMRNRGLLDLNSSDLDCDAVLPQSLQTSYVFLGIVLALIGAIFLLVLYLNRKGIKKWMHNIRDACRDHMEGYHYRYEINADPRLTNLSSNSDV
Experimental: as §1

[4] = biological target: T4, unconjugated human TPBG/5T4 protein with a c-terminal polyhistidine and Avi tag (AcroBiosystems Cat. No. … (human, UniProt Q13641 32-355)); assay: ELISA on coated human 5T4 His-Avi (Acro TPG-H52E5); antibody condition: pH 8.5 Day 0
T4 construct: Bought protein; also called Acro TPGH52E5; Acro Catalog No. TPGH52E; not shown: C-terminal polyhistidine and Avi tag
T4 sequence: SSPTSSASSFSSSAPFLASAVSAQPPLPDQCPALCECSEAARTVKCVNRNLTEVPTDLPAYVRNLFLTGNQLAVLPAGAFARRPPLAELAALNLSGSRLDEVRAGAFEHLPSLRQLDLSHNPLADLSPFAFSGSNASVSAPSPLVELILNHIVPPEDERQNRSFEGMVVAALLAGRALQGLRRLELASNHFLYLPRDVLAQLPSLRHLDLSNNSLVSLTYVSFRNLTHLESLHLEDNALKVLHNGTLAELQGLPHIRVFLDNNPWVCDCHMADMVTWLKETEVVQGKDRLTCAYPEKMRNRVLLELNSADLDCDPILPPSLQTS
Experimental: (§2) A. Normal Binding Unconjugated antibodies were tested for their ability to bind to human 5T4 (hu5T4) using ELISA. On Day 1, unconjugated human TPBG/5T4 protein with a c-terminal polyhistidine and Avi (AVITAG™) tag (AcroBiosystems (Newark, DE, USA), Cat. No. TPG-H52E5) was diluted 2 μg/mL in PBS, mixed thoroughly, plated 100 μL per well in a 96-well plate (Nunc MAXISORP®) and incubated overnight at 4° C.

[5] = biological target: T4, unconjugated human TPBG/5T4 protein …; assay: ELISA on coated human 5T4 His-Avi (Acro TPG-H52E5); antibody condition: pH 8.5 Day 4
Experimental: as §2

[6] = biological target: T4, unconjugated human TPBG/5T4 protein …; assay: ELISA on coated human 5T4 His-Avi (Acro TPG-H52E5); antibody condition: pH 5.5 Day 4
Experimental: as §2

Molecule | binding to HEK-5T4 cells (HEK-5T4 cells) | reactivity to cells transfected to express human 5T4 [1] | reactivity to cells transfected to express rat 5T4 [2] | reactivity to cells transfected to express mouse 5T4 [3] | EC50 [4] [pM] | EC50 [5] [pM] | EC50 [6] [pM]
B1 | binding | reactive | not to cells transfected to express rat or mouse 5T4 | not to cells transfected to express rat or mouse 5T4 | – | – | –
B2 | binding | reactive | not to cells transfected to express rat or mouse 5T4 | not to cells transfected to express rat or mouse 5T4 | – | – | –
B3 | – | – | – | – | 153 | 150 | 157
B4 | – | – | – | – | 134 | 133 | 123
B5 | binding | reactive | not to cells transfected to express rat or mouse 5T4 | not to cells transfected to express rat or mouse 5T4 | – | – | –
B6 | – | – | – | – | 120 | 114 | 125
